We go through 75 variants from PMC12102759 (2025).

B1: PIP5K1C peptide 642-657 (Phosphatidylinositol 4-phosphate 5-kinase type-1 gamma), 16-mer library wild type / TLN1 PTB (TLN1 Phosphotyrosine-binding (PTB) domain, residues 309-401) (parent complex)
chain 1: TDERSWVYSPLHYSAQ
chain 2: GVSFFLVKEKMKGKNKLVPRLLGITKECVMRVDEKTKEVIQEWNLTNIKRWAASPKSFTLDFGDYQDGYYSVQTTEGEQIAQLIAGYIDIILK
B2: CBL peptide 540-555 (E3 ubiquitin-protein ligase CBL), 16-mer library wild type / YES SH3 (YES1 SH3 domain, residues 90-152) (parent complex)
chain 1: RDLPPPPPPDRPYSVG
chain 2: not shown

Variants of B1 are the subject of one experiment. The experiment in a line: proteomic peptide phage display deep mutational scan (ProP-PD DMS): M13 P8 16-mer library selected against immobilised GST-tagged bait for four days (rounds), NGS of the eluted pools per day and pseudo-replica; bait immobilised on MaxiSorp plates (10 µg), library pre-cleared on GST, 2 h binding at 4 °C, five washes; one round per day, days 1-4; value from days 2 and 3.
Take chain 1 A15I: the screen value was 0.000328 average fractional NGS count over selection days 2 and 3 (reads of this peptide / all reads for the bait, averaged over ….
Still for that read-out and setting: with chain 1 A15P the figure was 0.00282 average fractional NGS count over selection days 2 and 3 (reads of this peptide / all reads for the bait, averaged over …; with chain 1 A15S, 0.001 average fractional NGS count over selection days 2 and 3 (reads of this peptide / all reads for the bait, averaged over ….
Still for that read-out and setting: with chain 1 E3S the figure was 0.00226 average fractional NGS count over selection days 2 and 3 (reads of this peptide / all reads for the bait, averaged over ….
For the variant chain 1 E3V, the screen value is 0.000642 average fractional NGS count over selection days 2 and 3 (reads of this peptide / all reads for the bait, averaged over ….
The same measure, in the same setting: with chain 1 E3H the figure was 0.00041 average fractional NGS count over selection days 2 and 3 (reads of this peptide / all reads for the bait, averaged over ….
chain 1 E3A: the screen value was 0.000271 average fractional NGS count over selection days 2 and 3 (reads of this peptide / all reads for the bait, averaged over ….
In the case of chain 1 E3G, the screen value is 0.00191 average fractional NGS count over selection days 2 and 3 (reads of this peptide / all reads for the bait, averaged over ….
Take chain 1 E3Y: the screen value is 0.00103 average fractional NGS count over selection days 2 and 3 (reads of this peptide / all reads for the bait, averaged over ….
On to chain 1 E3M, for which the screen value was 0.0019 average fractional NGS count over selection days 2 and 3 (reads of this peptide / all reads for the bait, averaged over ….
For the variant chain 1 E3W, the screen value was 0.0075 average fractional NGS count over selection days 2 and 3 (reads of this peptide / all reads for the bait, averaged over ….
In the case of chain 1 E3D, the screen value was 0.000475 average fractional NGS count over selection days 2 and 3 (reads of this peptide / all reads for the bait, averaged over ….
Take chain 1 E3I: the screen value is 0.00159 average fractional NGS count over selection days 2 and 3 (reads of this peptide / all reads for the bait, averaged over ….
In the case of chain 1 E3F, the screen value was 0.00327 average fractional NGS count over selection days 2 and 3 (reads of this peptide / all reads for the bait, averaged over ….
As for chain 1 E3T, the screen value is 0.00106 average fractional NGS count over selection days 2 and 3 (reads of this peptide / all reads for the bait, averaged over ….
Regarding chain 1 V7F, the screen value was 0.00058 average fractional NGS count over selection days 2 and 3 (reads of this peptide / all reads for the bait, averaged over ….
Turning to chain 1 V7H, the screen value was 0.000523 average fractional NGS count over selection days 2 and 3 (reads of this peptide / all reads for the bait, averaged over ….
On the same count and under the same terms, the value for chain 1 V7L was 0.0042 average fractional NGS count over selection days 2 and 3 (reads of this peptide / all reads for the bait, averaged over ….
For chain 1 V7Y, the screen value was 0.00645 average fractional NGS count over selection days 2 and 3 (reads of this peptide / all reads for the bait, averaged over ….
Turning to chain 1 V7W, the screen value is 0.00263 average fractional NGS count over selection days 2 and 3 (reads of this peptide / all reads for the bait, averaged over ….
Consider chain 1 V7A, for which the screen value is 0.0345 average fractional NGS count over selection days 2 and 3 (reads of this peptide / all reads for the bait, averaged over ….
As for chain 1 V7D, the screen value was 0.000439 average fractional NGS count over selection days 2 and 3 (reads of this peptide / all reads for the bait, averaged over ….
In the case of chain 1 V7G, the screen value is 0.000623 average fractional NGS count over selection days 2 and 3 (reads of this peptide / all reads for the bait, averaged over ….
As to chain 1 V7E, the screen value is 0.00195 average fractional NGS count over selection days 2 and 3 (reads of this peptide / all reads for the bait, averaged over ….
As for chain 1 V7I, the screen value was 0.000515 average fractional NGS count over selection days 2 and 3 (reads of this peptide / all reads for the bait, averaged over ….
With chain 1 V7T, the screen value was 0.0104 average fractional NGS count over selection days 2 and 3 (reads of this peptide / all reads for the bait, averaged over ….
Consider chain 1 D2R, for which the screen value is 0.00137 average fractional NGS count over selection days 2 and 3 (reads of this peptide / all reads for the bait, averaged over ….
For chain 1 D2F, the screen value was 0.00154 average fractional NGS count over selection days 2 and 3 (reads of this peptide / all reads for the bait, averaged over ….
On to chain 1 D2Y, for which the screen value is 0.000691 average fractional NGS count over selection days 2 and 3 (reads of this peptide / all reads for the bait, averaged over ….
Consider chain 1 D2H, for which the screen value is 0.0024 average fractional NGS count over selection days 2 and 3 (reads of this peptide / all reads for the bait, averaged over ….
Regarding chain 1 D2G, the screen value was 0.00241 average fractional NGS count over selection days 2 and 3 (reads of this peptide / all reads for the bait, averaged over ….
Turning to chain 1 D2A, the screen value is 0.0142 average fractional NGS count over selection days 2 and 3 (reads of this peptide / all reads for the bait, averaged over ….
The same measure, in the same setting: the value for chain 1 D2E was 0.00176 average fractional NGS count over selection days 2 and 3 (reads of this peptide / all reads for the bait, averaged over …; that for chain 1 D2W was 0.0007 average fractional NGS count over selection days 2 and 3 (reads of this peptide / all reads for the bait, averaged over ….
Still for that read-out and setting: with chain 1 D2L the figure was 0.0016 average fractional NGS count over selection days 2 and 3 (reads of this peptide / all reads for the bait, averaged over …; with chain 1 D2V, 0.00155 average fractional NGS count over selection days 2 and 3 (reads of this peptide / all reads for the bait, averaged over …; with chain 1 D2M, 0.000501 average fractional NGS count over selection days 2 and 3 (reads of this peptide / all reads for the bait, averaged over ….
With chain 1 D2I, the screen value is 0.000155 average fractional NGS count over selection days 2 and 3 (reads of this peptide / all reads for the bait, averaged over ….
As to chain 1 L11E, the screen value is 0.000382 average fractional NGS count over selection days 2 and 3 (reads of this peptide / all reads for the bait, averaged over ….
For the variant chain 1 L11V, the screen value was 0.00105 average fractional NGS count over selection days 2 and 3 (reads of this peptide / all reads for the bait, averaged over ….
For chain 1 L11Y, the screen value is 0.000186 average fractional NGS count over selection days 2 and 3 (reads of this peptide / all reads for the bait, averaged over ….
The same measure, in the same setting: with chain 1 L11F the figure was 0.000354 average fractional NGS count over selection days 2 and 3 (reads of this peptide / all reads for the bait, averaged over …; with chain 1 L11R, 0.00065 average fractional NGS count over selection days 2 and 3 (reads of this peptide / all reads for the bait, averaged over ….
For the variant chain 1 L11T, the screen value is 0.00178 average fractional NGS count over selection days 2 and 3 (reads of this peptide / all reads for the bait, averaged over ….
On to chain 1 L11I, for which the screen value is 0.00188 average fractional NGS count over selection days 2 and 3 (reads of this peptide / all reads for the bait, averaged over ….
For chain 1 L11A, the screen value was 0.000511 average fractional NGS count over selection days 2 and 3 (reads of this peptide / all reads for the bait, averaged over ….

The variants in a further experiment derive from B2. The experiment is described as above.
In the case of chain 1 P8M, the screen value was 0.00164 average fractional NGS count over selection days 2 and 3 (reads of this peptide / all reads for the bait, averaged over ….
As to chain 1 P8V, the screen value was 0.0212 average fractional NGS count over selection days 2 and 3 (reads of this peptide / all reads for the bait, averaged over ….
On the same count and under the same terms, the value for chain 1 R1L was 0.000379 average fractional NGS count over selection days 2 and 3 (reads of this peptide / all reads for the bait, averaged over …; that for chain 1 R1F was 0.000504 average fractional NGS count over selection days 2 and 3 (reads of this peptide / all reads for the bait, averaged over ….
On to chain 1 R1T, for which the screen value was 0.000703 average fractional NGS count over selection days 2 and 3 (reads of this peptide / all reads for the bait, averaged over ….
With chain 1 Y13L, the screen value is 0.00594 average fractional NGS count over selection days 2 and 3 (reads of this peptide / all reads for the bait, averaged over ….
Same read-out and setting: the value for chain 1 Y13A was 0.00126 average fractional NGS count over selection days 2 and 3 (reads of this peptide / all reads for the bait, averaged over ….
As to chain 1 L3A, the screen value is 0.000233 average fractional NGS count over selection days 2 and 3 (reads of this peptide / all reads for the bait, averaged over ….
Regarding chain 1 P5K, the screen value is 0.0018 average fractional NGS count over selection days 2 and 3 (reads of this peptide / all reads for the bait, averaged over ….
chain 1 P5R: the screen value was 0.00132 average fractional NGS count over selection days 2 and 3 (reads of this peptide / all reads for the bait, averaged over ….
The same measure, in the same setting: the value for chain 1 V15G was 0.000446 average fractional NGS count over selection days 2 and 3 (reads of this peptide / all reads for the bait, averaged over …; that for chain 1 V15A was 0.00486 average fractional NGS count over selection days 2 and 3 (reads of this peptide / all reads for the bait, averaged over …; that for chain 1 V15I was 7.73e-05 average fractional NGS count over selection days 2 and 3 (reads of this peptide / all reads for the bait, averaged over ….
On the same count and under the same terms, with chain 1 V15M the figure was 0.00453 average fractional NGS count over selection days 2 and 3 (reads of this peptide / all reads for the bait, averaged over …; with chain 1 V15W, 0.0167 average fractional NGS count over selection days 2 and 3 (reads of this peptide / all reads for the bait, averaged over ….
Same read-out and setting: the value for chain 1 D10M was 0.00163 average fractional NGS count over selection days 2 and 3 (reads of this peptide / all reads for the bait, averaged over …; that for chain 1 D10F was 0.000931 average fractional NGS count over selection days 2 and 3 (reads of this peptide / all reads for the bait, averaged over ….
As to chain 1 D10H, the screen value is 0.00429 average fractional NGS count over selection days 2 and 3 (reads of this peptide / all reads for the bait, averaged over ….
chain 1 D2H: the screen value was 0.000405 average fractional NGS count over selection days 2 and 3 (reads of this peptide / all reads for the bait, averaged over ….
Consider chain 1 D2Q, for which the screen value was 0.00168 average fractional NGS count over selection days 2 and 3 (reads of this peptide / all reads for the bait, averaged over ….
Turning to chain 1 P7R, the screen value was 0.000229 average fractional NGS count over selection days 2 and 3 (reads of this peptide / all reads for the bait, averaged over ….
In the case of chain 1 P7F, the screen value was 0.00308 average fractional NGS count over selection days 2 and 3 (reads of this peptide / all reads for the bait, averaged over ….
Same read-out and setting: with chain 1 P7T the figure was 0.00618 average fractional NGS count over selection days 2 and 3 (reads of this peptide / all reads for the bait, averaged over …; with chain 1 P4E, 0.000136 average fractional NGS count over selection days 2 and 3 (reads of this peptide / all reads for the bait, averaged over ….
On to chain 1 P12I, for which the screen value is 0.00216 average fractional NGS count over selection days 2 and 3 (reads of this peptide / all reads for the bait, averaged over ….
As for chain 1 P6F, the screen value was 0.00211 average fractional NGS count over selection days 2 and 3 (reads of this peptide / all reads for the bait, averaged over ….
For the variant chain 1 P6M, the screen value was 0.0066 average fractional NGS count over selection days 2 and 3 (reads of this peptide / all reads for the bait, averaged over ….
Regarding chain 1 P6Q, the screen value is 0.000768 average fractional NGS count over selection days 2 and 3 (reads of this peptide / all reads for the bait, averaged over ….
Turning to chain 1 P9S, the screen value is 0.000868 average fractional NGS count over selection days 2 and 3 (reads of this peptide / all reads for the bait, averaged over ….
